Data on 77 substances can be found in US20260000597A1 (priority 2018, published 2026).

For this test, the target named is AchR (Homo sapiens, UniProt P02708). Briefly: ELISA of screened peptide phages on AchR versus streptavidin (OD450). The note with it: absorbance at 450 nm. The test is classed as binding. On the procedure: The output phages for the 4th and 5th rounds of biopanning in Example 13-1 were inoculated to E. coli, and plated on the agar plates so as to form 100-200 plaques per plate. The plaques were inoculated on 1 ml of an SB liquid medium containing 50 μg/ml of ampicillin by using a sterile tip, and cultured with shaking at 37° C. for 5 hours, followed by the addition of 30 μl of helper phages, and then cultured at 37° C. and 200 rpm for one day. The culture was centrifuged at 12,000 rpm for 2 minutes to collect supernatant, and 2% BSA was added to the supernatant, and used for phage screening.
AchR, sequence (P02708 21-457): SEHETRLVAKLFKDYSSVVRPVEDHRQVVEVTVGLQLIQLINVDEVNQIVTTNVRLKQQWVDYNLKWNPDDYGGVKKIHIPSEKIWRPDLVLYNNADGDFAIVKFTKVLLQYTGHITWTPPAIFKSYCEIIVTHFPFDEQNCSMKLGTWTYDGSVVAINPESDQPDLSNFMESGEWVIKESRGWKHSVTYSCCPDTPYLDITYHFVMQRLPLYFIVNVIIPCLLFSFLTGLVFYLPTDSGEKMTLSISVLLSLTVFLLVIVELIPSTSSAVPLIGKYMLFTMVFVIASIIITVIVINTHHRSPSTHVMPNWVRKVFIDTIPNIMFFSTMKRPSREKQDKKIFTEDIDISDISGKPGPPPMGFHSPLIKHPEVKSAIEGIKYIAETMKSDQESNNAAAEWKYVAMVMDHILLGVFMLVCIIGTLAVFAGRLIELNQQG
In a 96-well ELISA plate, 5 μg/ml AchR or streptavidin was added at 50 μl per well, and left at 4° C. overnight. The next day, the solution in each well was discarded, followed by the addition of 2% BSA, and then blocked at room temperature for 2 hours. After the solution was all discarded, the wells were washed three times with Tris (20 mM, pH7). In addition, 100 μl of each of the phage solutions obtained from the above-prepared plaques was dispensed into wells and left at 30° C. for 1 hour. After the solution in the wells was all discarded, the wells were washed three times with Tris (20 mM, pH 7), and then the HRP-conjugated anti-M13 antibody diluted 1:2,000 was added at 100 μl per well, followed by culture at 30° C. for 1 hour. After the wells were washed three times with Tris (20 mM, pH7), 100 μl of tetramethylbenzidine was added to each well to induce a color development reaction, and then the reaction was stopped by the addition of 100 μl of 1M H2SO4, and the absorbance at 450 nm (OD450) was measured. The measured absorbance was converted into a ratio of AchR absorbance to streptavidin absorbance (AchR signal/streptavidin signal), and the results are shown in FIGS. 14 to 16.
(ELISA stands for enzyme-linked immunosorbent assay.)

Where [1] appears, read: ELISA of selected 14-mer (L3) peptide phages on AchR, Spep-2 positive control.
[2] abbreviates: ELISA of selected 11-mer (L2) peptide phages on AchR, Spep-2 positive control.
The mark [3] stands for this setting: phage ELISA, 5 μg/ml AchR, 4th and 5th round biopanning phages.

Substance “L3-26 (VPMKYRRCGNRQSN; AchR binding peptide) [Peptide L3-26]” came in with an OD under setting [1] of 0.802. As to “L2-42 (YYAKSKKYMVR; AchR binding peptide) [Peptide L2-42]”, the OD under setting [2] stood at 0.508. On to “L3-56 (QISKLKRPSYRGDD; AchR binding peptide) [Peptide L3-56]”, for which the OD under setting [1] is reported as 0.703. In the case of “L2-134 (VWNKVKRWLER; AchR binding peptide) [Peptide L2-134]”, the OD under setting [2] is listed as 0.44. Under setting [1], “L3-16 (DYLRSRKMEERFQE; AchR binding peptide) [Peptide L3-16]” came in with an OD of 0.797.

As to “L3-148 (MMARCRRIMCRSFN; AchR binding peptide) [Peptide L3-148]”, the OD under setting [1] amounted to 0.451. On the same count and under the same terms, with “L3-129 (IHPRYKRHQARSCC; AchR binding peptide) [Peptide L3-129]” the figure was 0.606. On to RIRRGSVR [Peptide L1-57], for which the OD under setting [3] is recorded as 0.408. Under setting [3], KSRRSAGK [Peptide L1-73] returned an OD of 0.644. For the substance “L3-38 (TVVKSRKCSVRYNW; AchR binding peptide) [Peptide L3-38]”, the OD under setting [1] was 0.669. Substance “L3-35 (LQCKYRRGSDKQPQ; AchR binding peptide) [Peptide L3-35]” returned an OD under setting [1] of 0.747. On to “L3-136 (PFDRARRDLHRIMM; AchR binding peptide) [Peptide L3-136]”, for which, under setting [1], the OD amounted to 0.512.

The substance “L2-60 (HADKFRRFNMR; AchR binding peptide) [Peptide L2-60]” returned an OD under setting [2] of 0.697. Take “L3-83 (SYLKCKRSDYKEVP; AchR binding peptide) [Peptide L3-83]”: under setting [1], the OD is listed as 0.768.

“L2-152 (IALKPKRVWLK; AchR binding peptide) [Peptide L2-152]” registered an OD under setting [2] of 0.681. Turning to “L3-87 (FLEKCRKFIIRVST; AchR binding peptide) [Peptide L3-87]”, the OD under setting [1] is 0.743. For “L3-117 (CGHKNKKWHNRMDP; AchR binding peptide) [Peptide L3-117]”, the OD under setting [1] is reported as 0.696. Regarding “L3-7 (EGDKFRRHDIKYNF; AchR binding peptide) [Peptide L3-7]”, the OD under setting [1] is 0.803. Take KARKNSIR [Peptide L1-170]: the OD under setting [3] was 0.642. “L2-9 (ATCKPKRPWYK; AchR binding peptide) [Peptide L2-9]” gave an OD under setting [2] of 0.721.

Under setting [3], KIRRVTNK [Peptide L1-162] registered an OD of 0.668. RFKRMVWR [Peptide L1-99] gave an OD under setting [3] of 0.543. Turning to “L3-180 (QGIRPRKHLQRMPN; AchR binding peptide) [Peptide L3-180]”, the OD under setting [1] was 0.7.

Under setting [2], “L2-104 (PEDRQRKTWFK; AchR binding peptide) [Peptide L2-104]” displayed an OD of 0.563. Still for that read-out and setting: with “L2-145 (MNEKPKKNDQK; AchR binding peptide) [Peptide L2-145]” the figure was 0.468. The substance “L2-199 (EICKNRKPANR; AchR binding peptide) [Peptide L2-199]” displayed an OD under setting [2] of 0.716. Consider RCKRFVGK [Peptide L1-173], for which the OD under setting [3] was 0.63. With KTKKAAER [Peptide L1-178], the OD under setting [3] was found to be 0.625. Still for that read-out and setting: the result for KTRRVDLR [Peptide L1-38] reads 0.514. In turn, “L3-95 (SISRLRKAHQKFIP; AchR binding peptide) [Peptide L3-95]” displayed an OD under setting [1] of 0.657. Take “L3-63 (CPWRNRKAMIKGII; AchR binding peptide) [Peptide L3-63]”: under setting [1], the OD was found to be 0.794. Same read-out and setting: the result for “L3-103 (NDWKLRKDFWRNHF; AchR binding peptide) [Peptide L3-103]” reads 0.676; that for “L3-96 (EWHKHRREMVRWGP; AchR binding peptide) [Peptide L3-96]”, 0.567. In turn, KVRRVFLK [Peptide L1-132] showed an OD under setting [3] of 0.541. Under setting [2], “L2-6 (PELKCKRMIGR; AchR binding peptide) [Peptide L2-6]” came in with an OD of 0.78. On to RVKKAETR [Peptide L1-92], for which, under setting [3], the OD stood at 0.581. “L3-115 (NDPRLRKHNHRCCT; AchR binding peptide) [Peptide L3-115]” showed an OD under setting [1] of 0.685. In turn, KTKRMLAK [Peptide L1-47] registered an OD under setting [3] of 0.54.

Substance “L3-158 (FDMRDRRPNARVMP; AchR binding peptide) [Peptide L3-158]” showed an OD under setting [1] of 0.738.

RHKRQQDK [Peptide L1-186]: the OD under setting [3] turned out to be 0.474. Still for that read-out and setting: with KPRRPDTR [Peptide L1-109] the figure was 0.542; with RMKKFHTR [Peptide L1-128], 0.301. As to “L3-188 (DGIRDKKCCWRDLI; AchR binding peptide) [Peptide L3-188]”, the OD under setting [1] is 0.738. Substance “L2-174 (PLFKSRRAYVR; AchR binding peptide) [Peptide L2-174]” registered an OD under setting [2] of 0.693.

Under setting [3], KLKKFPVR [Peptide L1-4] registered an OD of 0.696. On to “L3-23 (QYHKVRKLWFRVEP; AchR binding peptide) [Peptide L3-23]”, for which the OD under setting [1] stood at 0.799. For the substance “L2-175 (CVMRCRRSEDK; AchR binding peptide) [Peptide L2-175]”, the OD under setting [2] came out at 0.65. On to KARRQEDK [Peptide L1-14], for which, under setting [3], the OD is recorded as 0.755.

For “L2-85 (VFVKWRRQMMR; AchR binding peptide) [Peptide L2-85]”, the OD under setting [2] was determined as 0.768.

The substance “L2-53 (PAWRCKRCQPK; AchR binding peptide) [Peptide L2-53]” returned an OD under setting [2] of 0.614. As for KFKRTEGR [Peptide L1-19], under setting [3], the OD stood at 0.575. For the substance RPKKHQER [Peptide L1-158], the OD under setting [3] came out at 0.605. The substance “L3-89 (EWCKNKRWHSREYP; AchR binding peptide) [Peptide L3-89]” displayed an OD under setting [1] of 0.624. As for “L2-176 (WWHKHRRAQSK; AchR binding peptide) [Peptide L2-176]”, the OD under setting [2] stood at 0.574. Take “L3-149 (PFGKFKRLENKDEC; AchR binding peptide) [Peptide L3-149]”: the OD under setting [1] is reported as 0.571. Under setting [3], RTKRWQLK [Peptide L1-94] had an OD of 0.496. Under setting [1], “L3-142 (LQCKYRRGSDKTVV; AchR binding peptide) [Peptide L3-142]” registered an OD of 0.502. Take “L2-129 (TCIKYRRAHTK; AchR binding peptide) [Peptide L2-129]”: the OD under setting [2] came to 0.603. Regarding “L2-130 (GYDRARKGTLR; AchR binding peptide) [Peptide L2-130]”, under setting [2], the OD amounted to 0.64. Under setting [1], “L3-196 (IEMRYRRDCSRFVN; AchR binding peptide) [Peptide L3-196]” registered an OD of 0.746. Consider “L3-62 (YPERPRKLQDKSYS; AchR binding peptide) [Peptide L3-62]”, for which, under setting [1], the OD turned out to be 0.766. Under setting [3], RHKRWSGR [Peptide L1-153] had an OD of 0.625. KTKRGSLK [Peptide L1-101] returned an OD under setting [3] of 0.599.

As for “L3-46 (SAHKKRKQTLRCSE; AchR binding peptide) [Peptide L3-46]”, the OD under setting [1] is given as 0.618.

For the substance RHKRWEVR [Peptide L1-195], the OD under setting [3] is on record as 0.642.

In turn, “GGRKKRRQRRRGGG [Peptide L3-202, reference compound]” showed an OD under setting [3] of 0.301.

The substance “L3-48 (PHCRQKKFWIRCGT; AchR binding peptide) [Peptide L3-48]” yielded an OD under setting [1] of 0.622.

Take “L3-43 (FTHKNRRDSLRVWM; AchR binding peptide) [Peptide L3-43]”: the OD under setting [1] was found to be 0.93.

The substance “L2-189 (AHIKSRKVWSR; AchR binding peptide) [Peptide L2-189]” had an OD under setting [2] of 0.696. “L3-128 (IVNRAKRSQIRFDV; AchR binding peptide) [Peptide L3-128]”: the OD under setting [1] stood at 0.523. Consider “L3-93 (EGGRIKRPNYRGDG; AchR binding peptide) [Peptide L3-93]”, for which, under setting [1], the OD came out at 0.7. KVKRLWNR [Peptide L1-110] came in with an OD under setting [3] of 0.422. Same read-out and setting: with RVRRSWIR [Peptide L1-72] the figure was 0.616. Consider “L3-71 (PLIKVKRGVGKLWN; AchR binding peptide) [Peptide L3-71]”, for which the OD under setting [1] is reported as 0.78. The same measure, in the same setting: the result for “L3-139 (FHHRHKRIATKHPA; AchR binding peptide) [Peptide L3-139]” reads 0.49. In turn, “L2-109 (YPTKGKRCMIR; AchR binding peptide) [Peptide L2-109]” returned an OD under setting [2] of 0.596.

The substance RFRKMIPK [Peptide L1-115] came in with an OD under setting [3] of 0.451.
